Source: publication PMC5268738, “A sequential multi-target Mps1 phosphorylation cascade promotes spindle checkpoint signaling” (eLife, 2017)

T1: C-terminal domain (CTD) of scMad1 (Saccharomyces cerevisiae, UniProt P40957)
T1 sequence (P40957 633-749 limits assumed): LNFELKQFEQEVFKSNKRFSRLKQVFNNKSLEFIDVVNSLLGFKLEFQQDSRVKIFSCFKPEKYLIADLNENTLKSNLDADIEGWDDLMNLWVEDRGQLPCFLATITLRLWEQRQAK

B1: Phosphorylated scBub1449–530: Mps1-phosphorylated scBub1 fragment containing the CM (protein)
chain: SRSPTVTAFSKDAINEVFSMFNQHYSTPGALLDGDDTTTSKFNVFENFTQEFTAKNIEDLTEVKDPKQETVSQQTTSTNETN
modifications: phosphothreonine at 453, phosphothreonine at 455, phosphoserine at 458 (mass spectrometry; co-expressed with scMps1); left off: GST, N-terminal, state not stated
notes: Mps1-phosphorylated scBub1 fragment containing the CM
B2: scBub1_369–608: scBub1 fragment co-expressed with the kinase domain of scMps1 in bacteria (protein)
chain: RKLDVLVERRQDLPSSQPPVVPKSTRIEVFKDDDNPSQSTHHKNTQVQVQTTTSILPLKPVVDGNLAHETPVKPSLTSNASRSPTVTAFSKDAINEVFSMFNQHYSTPGALLDGDDTTTSKFNVFENFTQEFTAKNIEDLTEVKDPKQETVSQQTTSTNETNDRYERLSNSSTRPEKADYMTPIKETTETDVVPIIQTPKEQIRTEDKKSGDNTETQTQLTSTTIQSSPFLTQPEPQAEK
modifications: left off: GST, N-terminal, kept
notes: scBub1 fragment co-expressed with the kinase domain of scMps1 in bacteria

Legend:
[1] = target: T1, C-terminal domain (CTD) of scMad1; assay: ITC, scBub1 fragment or phospho-peptides with scMad1 CTD; format: binding; settings: 20°C, 25 mM HEPES pH 7.5, 150 mM NaCl, scMad1 20 µM in cell, scBub1 phospho-peptide or fragment 300 µM injected, read-out: Kd, dissociation constant
Experimental: (§1) All isothermal titration calorimetry (ITC) assays were performed with a MicroCal Omega ITC200 titration calorimeter (GE Life Sciences) at 20°C. Recombinant scMad1^CTD protein or scMad1–scMad2 complexes were dialyzed into the HEPES Buffer I (25 mM HEPES, pH 7.5, 150 mM NaCl). Recombinant human Mad1^CTD protein was dialyzed into the HEPES Buffer II (25 mM HEPES, pH 7.5, 50 mM NaCl). For each titration, 300 μl of scMad1 proteins (20 µM) or human Mad1 (50 µM) were added to the calorimeter cell. The scBub1 phospho-peptides or purified scMps1-phosphorylated scBub1_449–530 fragment (300 µM) in the HEPES Buffer I or the human Bub1 phospho-peptides (500 µM) in the HEPES Buffer II were injected with an injection syringe in 19 2-μl portions. The raw data were processed and fitted with the NITPIC software package ([Keller et al., 2012]).

[2] = target: scMad1^E–scMad2 complex; assay: ITC, Mps1-phosphorylated scBub1 fragment with scMad1^E–scMad2 complex; format: binding, Saccharomyces cerevisiae; settings: 20°C, 25 mM HEPES pH 7.5, 150 mM NaCl, scMad1 proteins 20 µM in cell, scBub1 fragment 300 µM injected, read-out: Kd, dissociation constant (affinity)
Experimental: as §1

[3] = test system: scMad1^E–scMad2 complex; assay: in vitro pull-down of scMad1^E–scMad2 by GST-scBub1 fragments; format: binding, Saccharomyces cerevisiae; settings: scBub1 fragments alone or co-expressed with scMps1 kinase domain
Experimental: Expression of GST-BubR1^N (residues 1–370), GST-Mad2, GST-scBub1 fragments, GST-Mad1, and GST-scMad1 fragments in BL21(DE3) was induced by 0.1 mM isopropyl β-D-1-thiogalactopyranoside (IPTG) at 16°C overnight, after the OD600 reached 0.8. Mad1 and scMad1 fragments (Mad1^E) containing the Mad2-interacting motif (MIM) were co-expressed with Mad2 and scMad2, respectively. Fragments of scBub1 were co-expressed with His6-scMps1 (the kinase domain; residues 440–720). […] After sonication, lysates were cleared by centrifugation at 4°C. Supernatants were filtered by 0.45 µm filter and incubated with pre-equilibrated Glutathione Sepharose 4B beads (GE Healthcare). Protein-bound beads were washed with 40 volumes of the wash buffer I. The proteins were then eluted with reduced glutathione (Sigma) or cleaved with the PreScission protease. Eluates were dialyzed to the QA buffer (25 mM Tris-HCl, pH 8.0, 20 mM NaCl, 3 mM DTT), loaded onto a Resource Q column (GE Healthcare), and then eluted with the QB buffer (25 mM Tris-HCl, pH 8.0, 1 M NaCl, 3 mM DTT). Peak fractions were pooled and further purified with a Superdex 200 size exclusion column (GE Healthcare). […]
Recombinant bait proteins or bacteria lysates containing bait proteins were incubated with the appropriate affinity beads. […] The bead-bound proteins were analyzed by Coomassie blue staining or Western blotting. […]

Molecule	Kd [1] [nM]	Kd [2] [nM]	binding to scMad1^E–scMad2 (in words) [3]
B1	2930	2210	
B2			only the phosphorylated scBub1 bound to the scMad1^E–scMad2 complex
